The target in experiment [1] is T1, human ENPP1, full length, over-expressed on HEK cells (human, UniProt P22413 1-925).
T1 construct: whole, on cells
T1 sequence (looked up): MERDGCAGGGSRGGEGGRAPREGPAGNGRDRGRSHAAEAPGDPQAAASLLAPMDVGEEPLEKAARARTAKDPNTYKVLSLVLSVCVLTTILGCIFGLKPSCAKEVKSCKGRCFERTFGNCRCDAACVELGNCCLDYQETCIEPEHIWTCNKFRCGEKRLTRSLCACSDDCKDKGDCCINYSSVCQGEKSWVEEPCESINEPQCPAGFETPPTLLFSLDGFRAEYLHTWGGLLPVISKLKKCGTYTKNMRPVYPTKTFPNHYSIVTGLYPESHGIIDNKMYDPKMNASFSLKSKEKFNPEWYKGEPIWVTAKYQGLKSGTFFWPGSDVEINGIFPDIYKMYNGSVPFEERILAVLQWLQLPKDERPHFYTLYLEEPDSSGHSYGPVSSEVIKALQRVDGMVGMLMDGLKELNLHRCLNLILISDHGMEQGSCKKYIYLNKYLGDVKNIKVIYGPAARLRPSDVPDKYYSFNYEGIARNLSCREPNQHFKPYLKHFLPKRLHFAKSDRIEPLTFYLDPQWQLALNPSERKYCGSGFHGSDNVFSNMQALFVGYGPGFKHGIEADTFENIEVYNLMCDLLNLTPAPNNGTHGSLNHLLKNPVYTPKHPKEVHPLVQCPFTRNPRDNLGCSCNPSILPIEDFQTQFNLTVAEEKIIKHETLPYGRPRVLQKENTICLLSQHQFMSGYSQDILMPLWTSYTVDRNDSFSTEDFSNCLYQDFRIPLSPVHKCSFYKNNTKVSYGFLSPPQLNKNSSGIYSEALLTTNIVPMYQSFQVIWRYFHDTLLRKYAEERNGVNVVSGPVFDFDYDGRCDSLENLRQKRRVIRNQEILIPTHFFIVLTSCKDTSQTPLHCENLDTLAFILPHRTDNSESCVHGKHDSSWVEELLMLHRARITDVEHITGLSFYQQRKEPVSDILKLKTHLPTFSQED
Description: flow cytometry (mean fluorescence intensity) on HEK cells over-expressing full length human ENPP1. (Flow cytometry measures light scatter and fluorescence of single cells or particles in a stream.)

Experiment [2] deals with T1, human ENPP1, full length, …. Briefly: flow cytometry (mean fluorescence intensity) on HEK cells over-expressing full length ENPP1, varying mAb concentrations, fitted in Graph Pad Prism.

B1: 12-J-4 ENPP1 monoclonal antibody (antibody, V domains shown)
VH: EVMLVESGGGLVKPGGSLKLSCVASGFTFSSYTMSWVRQTPEKRLEWVATISGGGGNTYYPDSVKGRFTISRDNAKNTLYLQMSSLRSEDTALYYCARRHYGSSPYAMDYWGQGTSVTVSS
VL: DIQMTQTTSSLSASLGDRVTISCRASQDISNYLNWYQQKPDGTVKLLIYHKTRLHSGVPSRFSGSGSGTDYSLTISNLEQEDIATYFCQQGNMLPWTFGGGTKLEIK
notes: The antibody is a recombinant IgG1kappa made in a CHO cell line, from a hybridoma raised against human recombinant ENPP1; Heavy chain about 48 kD, light chain about 24 kD; also called ENPP1 mAb; ENPP1mAb
In the case of B1, the “EC50 (read off the curve)” value in experiment [1] is approximately 4 nM. In experiment [2], the Kd worked out at 3.52 nM.

By EC50 (read off the curve) is commonly meant the concentration needed to bring the measured effect to its halfway point. What is called Kd is the concentration at which binding is half-saturated. The low end stands for a tighter complex, the high end for a looser complex.

For the origin of these results see patent publication US20220033512A1 (University of California, published 2022).
